# Assay results reported in US8277440B2, “Implantable device for controlled, extended delivery of parathyroid hormone” (MicroCHIPS, Inc., priority 2002, dated 2012).
# How the values were obtained:
# skeletal homeostasis = conditions: cited from earlier work
# [1] = Solubility of PTH as a function of pH; type: physicochemical
# From the text: While not being bound by any theory, it is believed that this phenomena was due to the salts (e.g., MW ˜60) in the PTH solution diffusing into the physiological solution at a rate that exceeded the rate of diffusion of the PTH (e.g., MW ˜4000) due, for example, to the molecular weight (MW) dependence of diffusion rate, to such an extent that the pH of the PTH solution increased to a point exceeding that required to keep the PTH in solution. (For example, at pH 3, the PTH has a solubility of about 100 μg/ml and at pH 7, the PTH has a solubility of about 20 μg/ml.)
substance,measurement,setting,value
parathyroid hormone [PTH],bone volume,skeletal homeostasis; daily dose given as one single injection,dose dependent increase
same,effect on serum calcium,skeletal homeostasis; in vivo,dose dependent increase
same,effect on serum calcium levels,skeletal homeostasis; in vivo,practically no effect
same,result on bone,skeletal homeostasis; same daily dose by continuous infusion with subcutaneous mini-osmotic pump,bone loss
same,solubility,[1]; pH 3,about 100 μg/ml
same,solubility,[1]; pH 7,about 20 μg/ml
